Assay results: US8685401B2, “Methods of enhancing the response to radiation in tumor therapy using anti-DLL4 antibodies” (priority 2011, dated 2014)

System: LS174T cells
Test: Apoptosis, Caspase-Glo 3/7 assay
Format: cell-based, human
Settings: 50 nM recombinant TRAIL, 2 hrs

B1: TRAIL: recombinant TRAIL (R&D Systems), positive control for apoptosis (protein, UniProt P50591 1-281, looked up)
Tumor necrosis factor ligand …: MAMMEVQGGPSLGQTCVLIVIFTVLLQSLCVAVTYVYFTNELKQMQDKYSKSGIACFLKEDDSYWDPNDEESMNSPCWQVKWQLRQLVRKMILRTSEETISTVQEKQQNISPLVRERGPQRVAAHITGTRGRSNTLSSPNSKNEKALGRKINSWESSRSGHSFLSNLHLRNGELVIHEKGFYYIYSQTYFRFQEEIKENTKNDKQMVQYIYKYTSYPDPILLMKSARNSCWSKDAEYGLYSIYQGGIFELKENDRIFVSVTNEHLIDMDHEASFFGAFLVG
Q: B1 was tested. Which “apoptosis (caspase 3/7), positive control” value did it give?
A: large increase in apoptosis
